In paper doi:10.1101/854133:

Molecular target: FANCI-Ub (mono-ubiquitinated at K523);FANCD2-Ub (mono-ubiquitinated at K561) (human;human) (UniProt Q9NVI1+Q9BXW9)
Assay: EMSA
Settings: nick

FANCI-Ub (mono-ubiquitinated at K523);FANCD2-Ub (mono-ubiquitinated at K561) (human;human), sequence (Q9NVI1 whole entry, chain 1 of 2): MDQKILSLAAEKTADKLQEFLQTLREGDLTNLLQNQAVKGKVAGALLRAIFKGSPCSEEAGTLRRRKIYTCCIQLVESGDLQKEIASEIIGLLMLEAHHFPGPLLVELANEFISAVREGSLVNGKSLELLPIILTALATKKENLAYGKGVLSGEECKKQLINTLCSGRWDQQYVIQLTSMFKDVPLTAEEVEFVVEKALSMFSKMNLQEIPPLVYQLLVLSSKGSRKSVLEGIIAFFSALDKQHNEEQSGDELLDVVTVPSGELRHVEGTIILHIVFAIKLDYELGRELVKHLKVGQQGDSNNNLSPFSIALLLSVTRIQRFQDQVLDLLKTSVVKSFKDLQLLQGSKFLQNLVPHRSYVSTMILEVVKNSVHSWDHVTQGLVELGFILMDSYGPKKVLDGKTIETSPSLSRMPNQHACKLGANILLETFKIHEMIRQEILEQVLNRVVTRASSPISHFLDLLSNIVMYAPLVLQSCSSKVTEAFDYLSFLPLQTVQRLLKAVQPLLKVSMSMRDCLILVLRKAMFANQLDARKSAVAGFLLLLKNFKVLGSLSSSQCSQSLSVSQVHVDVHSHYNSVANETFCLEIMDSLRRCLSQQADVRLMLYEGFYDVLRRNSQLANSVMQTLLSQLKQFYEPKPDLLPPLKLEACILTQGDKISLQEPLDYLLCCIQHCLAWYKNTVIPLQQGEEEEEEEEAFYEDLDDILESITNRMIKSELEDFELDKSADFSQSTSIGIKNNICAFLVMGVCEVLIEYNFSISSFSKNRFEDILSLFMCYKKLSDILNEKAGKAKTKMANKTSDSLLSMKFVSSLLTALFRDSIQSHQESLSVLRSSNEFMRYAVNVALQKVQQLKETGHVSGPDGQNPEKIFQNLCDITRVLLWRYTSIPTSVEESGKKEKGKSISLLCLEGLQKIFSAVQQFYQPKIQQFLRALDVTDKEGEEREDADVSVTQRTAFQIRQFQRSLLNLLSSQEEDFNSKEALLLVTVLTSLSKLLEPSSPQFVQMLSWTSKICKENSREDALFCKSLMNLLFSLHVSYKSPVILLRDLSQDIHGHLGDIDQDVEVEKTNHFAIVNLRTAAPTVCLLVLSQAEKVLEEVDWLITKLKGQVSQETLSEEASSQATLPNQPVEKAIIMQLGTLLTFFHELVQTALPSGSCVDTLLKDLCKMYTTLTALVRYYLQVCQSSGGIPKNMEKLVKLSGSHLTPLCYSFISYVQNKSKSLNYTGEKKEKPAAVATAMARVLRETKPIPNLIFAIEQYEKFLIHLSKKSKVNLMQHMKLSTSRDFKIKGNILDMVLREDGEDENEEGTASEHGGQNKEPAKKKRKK
FANCI-Ub (mono-ubiquitinated at K523);FANCD2-Ub (mono-ubiquitinated at K561) (human;human), sequence (Q9BXW9 whole entry, chain 2 of 2): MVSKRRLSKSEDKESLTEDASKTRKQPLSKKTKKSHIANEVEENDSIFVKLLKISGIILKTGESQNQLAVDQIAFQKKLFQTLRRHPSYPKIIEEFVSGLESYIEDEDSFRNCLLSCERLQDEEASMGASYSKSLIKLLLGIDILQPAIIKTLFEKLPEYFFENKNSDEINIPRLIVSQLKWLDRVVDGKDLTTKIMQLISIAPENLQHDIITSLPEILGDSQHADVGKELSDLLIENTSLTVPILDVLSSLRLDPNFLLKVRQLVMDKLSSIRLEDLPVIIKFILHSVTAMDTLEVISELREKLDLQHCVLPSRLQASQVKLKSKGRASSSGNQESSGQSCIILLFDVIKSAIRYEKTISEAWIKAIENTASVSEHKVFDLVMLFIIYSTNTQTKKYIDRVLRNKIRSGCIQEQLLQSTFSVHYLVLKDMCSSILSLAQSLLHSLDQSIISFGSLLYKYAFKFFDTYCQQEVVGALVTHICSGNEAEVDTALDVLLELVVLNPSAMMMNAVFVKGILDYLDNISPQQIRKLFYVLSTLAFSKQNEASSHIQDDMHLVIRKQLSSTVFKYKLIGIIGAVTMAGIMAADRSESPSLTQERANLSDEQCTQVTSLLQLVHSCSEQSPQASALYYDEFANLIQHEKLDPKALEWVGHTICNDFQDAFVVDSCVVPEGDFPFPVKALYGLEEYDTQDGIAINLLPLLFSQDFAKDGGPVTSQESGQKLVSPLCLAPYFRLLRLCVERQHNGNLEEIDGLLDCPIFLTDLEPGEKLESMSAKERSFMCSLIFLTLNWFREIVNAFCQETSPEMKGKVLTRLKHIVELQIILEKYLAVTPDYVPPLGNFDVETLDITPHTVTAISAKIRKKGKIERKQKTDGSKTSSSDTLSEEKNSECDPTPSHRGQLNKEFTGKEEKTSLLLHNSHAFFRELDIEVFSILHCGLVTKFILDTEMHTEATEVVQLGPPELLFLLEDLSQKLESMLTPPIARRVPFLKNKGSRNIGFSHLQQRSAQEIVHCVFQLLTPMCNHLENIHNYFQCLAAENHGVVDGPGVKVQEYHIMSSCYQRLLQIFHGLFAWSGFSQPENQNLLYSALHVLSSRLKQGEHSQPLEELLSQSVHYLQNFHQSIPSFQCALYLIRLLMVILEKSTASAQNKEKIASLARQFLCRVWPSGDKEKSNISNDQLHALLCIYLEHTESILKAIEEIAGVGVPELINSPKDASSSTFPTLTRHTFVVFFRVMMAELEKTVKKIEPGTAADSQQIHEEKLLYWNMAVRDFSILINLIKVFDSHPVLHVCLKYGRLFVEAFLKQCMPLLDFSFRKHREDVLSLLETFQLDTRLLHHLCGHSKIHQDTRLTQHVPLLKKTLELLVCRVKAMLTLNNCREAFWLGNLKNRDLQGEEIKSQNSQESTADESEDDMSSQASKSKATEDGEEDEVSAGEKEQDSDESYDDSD

nicked DNA, EMSA was tested, and the Kd was 20 nM.
